Patent US20040077572

Tested on: Sleeping Beauty transposase SB10 (synthetic (reconstructed salmonid))
Test: cell_activity

Question: LoLo-RoRo transposon was tested. Which activity (transposition reduced nearly 85%) did it give?
Answer: 15%

Question: LoLi-LiLo transposon was tested. Which activity (relative excision, transposition 101%) did it give?
Answer: 95%

Question: With pT2/SV40Neo transposon as the substance, how does the activity (just under four-fold over pT/SV40neo) read?
Answer: 4 fold

Question: Lo(AAG) transposon was tested. Which activity (relative excision) did it give?
Answer: 11%

Question: Which activity (relative transposition in HeLa) does the source give for “TANNNNCAGTTGAAGTCGGAAGTTTACATACACTTAAG (double strand) [TAN4Lo transposon]” here?
Answer: 30%

Question: With RoRi-RiRo transposon as the substance, how does the activity (relative excision, transposition 29%) read?
Answer: 43%

Question: For LoLo-RiRo transposon, which activity (relative excision, transposition 45%) is on record?
Answer: 46%
